Test results as given in PMC5738273 (Journal of molecular biology, 2017).

B1: wild-type HdeA (natural protein, Escherichia coli, UniProt P0AES9 22-110, looked up)
chain: ADAQKAADNKKPVNSWTCEDFLAVDESFQPTAVGFAEALNNKDKPEDAVLDVQGIATVTPAIVQACTQDKQANFKDKVKGEWDKIKKDM
B2: HdeA E37Q (natural protein, Escherichia coli, UniProt P0AES9 22-110, looked up)
chain: ADAQKAADNKKPVNSWTCEDFLAVDESFQPTAVGFAQALNNKDKPEDAVLDVQGIATVTPAIVQACTQDKQANFKDKVKGEWDKIKKDM

Key:
ITC = molecular target: the molecule itself; experiment: ITC
MST [1] = molecular target: the molecule itself; experiment: MST
MST [2] = molecular target: the molecule itself; experiment: MST; remark: listed apart in the source
MST [3] = molecular target: the molecule itself; experiment: MST; remark: listed apart in the source
MST [4] = molecular target: the molecule itself; experiment: MST; remark: listed apart in the source

| Protein | Kd (ITC) [nM] | Kd (MST [1]) [nM] | Kd (MST [2]) [nM] | Kd (MST [3]) [nM] | Kd (MST [4]) [nM] |
| --- | --- | --- | --- | --- | --- |
| B1 | 64000 ± 8000 | 640 ± 170 | 750 ± 310 | 1200 ± 200 | – |
| B2 | – | 550 ± 100 | – | – | 490 ± 100 |
